# Results: publication PMC10613254
# Target: bovine brain Arp2/3 complex (bovine) (UniProt P61157)
# Assay: ITC; cortactin constructs titrated into ATP-Arp2/3 complex; temperature and concentrations indicated only in Fig. 4d
# Sequence of Cort_(18-76) (Q60598 18-76): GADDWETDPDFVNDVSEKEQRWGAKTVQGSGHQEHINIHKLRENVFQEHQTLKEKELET
# Sequence of Cort_(1-33) (Q60598 1-33): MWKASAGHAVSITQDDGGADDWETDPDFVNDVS
# Sequence of Cort_(1-76), cortactin N-terminal acidic domain (NTA, residues 1-76) (Q60598 1-76): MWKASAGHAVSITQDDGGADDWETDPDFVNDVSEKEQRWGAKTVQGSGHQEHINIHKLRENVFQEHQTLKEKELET
row,stoichiometry N,Substance
1,1,Cort_(18-76) (from UniProt Q60598 18-76) (domain or fragment)
2,1,Cort_(1-33) (from UniProt Q60598 1-33) (domain or fragment)
3,1,"Cort_(1-76), cortactin N-terminal acidic domain (NTA, residues 1-76) (from UniProt Q60598 1-76) (domain or fragment)"
